This experiment concerns the target PD1 (programmed cell death protein 1) (human, UniProt Q15116 25-288). The experiment is described as follows: cell-based or functional assay.

The record followed here is patent US20230074793A1 (Xencor, published 2023).

Sequence of PD1 (programmed cell death protein 1) (Q15116 25-288): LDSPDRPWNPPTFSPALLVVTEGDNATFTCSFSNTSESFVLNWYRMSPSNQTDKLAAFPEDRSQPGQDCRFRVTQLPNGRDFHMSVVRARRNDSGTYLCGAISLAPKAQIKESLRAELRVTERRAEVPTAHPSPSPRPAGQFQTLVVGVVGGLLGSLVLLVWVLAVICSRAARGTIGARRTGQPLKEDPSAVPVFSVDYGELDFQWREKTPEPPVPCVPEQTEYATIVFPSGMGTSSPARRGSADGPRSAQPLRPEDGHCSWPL

B1: XmAb®20717 (bispecific antibody, human IgG1, kappa)
heavy: not shown
scFv: EIVLTQSPATLSASPGERVTLTCRASQSVGNDVAWYQQKPGQAPRLLINYASHRYTGVPDRFTGSGYGTEFTLTISSVQSEDFGVYYCQQDFSSPRTFGGGTKVEIKGKPGSGKPGSGKPGSGKPGSEVQLVESGGGLVKPGGSLRLSCVASGFTFSNYWMNWVRQAPGKGLEWVAEIRLYSNNYATHYAESVKGRFTISRDDSKSTLYLQMNNLKTEDTGVYYCTRYYGNYGGYFDVWGRGTLVTVSSEPKSSDKTHTCPPCPAPPVAGPSVFLFPPKPKDTLMISRTPEVTCVVVDVKHEDPEVKFNWYVDGVEVHNAKTKPREEQYNSTYRVVSVLTVLHQDWLNGKEYKCKVSNKALPAPIEKTISKAKGQPREPQVYTLPPSREQMTKNQVKLTCLVKGFYPSDIAVEWESNGQPENNYKTTPPVLDSDGSFFLYSKLTVDKSRWQQGNVFSCSVLHEALHSHYTQKSLSLSPGK
light: not shown
Take B1: the “IL-2 secretion (ELISA of culture supernatants) from SEB-stimulated human PBMC treated 24 hours, versus anti-RSV isotype-control bivalent antibody XENP15074” value was found to be 4.1 fold; the “IL-2 secretion (ELISA) from SEB-stimulated human PBMC, versus a mixture of the monovalent component antibodies XENP20111 (anti-PD1 scFv-Fc) and XENP20059 (anti-CTLA4 Fab-Fc)” value is 1.6 fold; the “IL-2 secretion (ELISA) from SEB-stimulated human PBMC, versus the bivalent anti-PD1 antibody XENP16432” value stood at 1.5 fold.
